# B1: TPR t1 (parent)
# chain: GACCAAUCUGCCCUCAGAGCUCGAGAACAUCUUCGGAUGCAGAGGAGGCAGGCUUCGGUGGCGCGAUAGCGCCAACGUCCUCAACCUCCAAUGCAUCCCACCACAUGAUGAUGCCUGAAGAGCCUUGGUUUUUUG
# Variants of: B1
# Assay: polymerase ribozyme fitness, log enrichment relative to wild type (log ratio); higher = more active; in vitro selection for triplet polymerase activity
# Method in brief: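 Mutant libraries were PCR-built and transcribed for each subunit of a heterodimeric triplet polymerase ribozyme and selected for one round in triplicate at −7 °C, frozen, before gel excision of extended constructs and streptavidin-bead capture. Input and output libraries were Illumina-sequenced, keeping genotypes with ≥10 input reads and ≥1 read per output. Fitness is a logarithmic ratio of genotype to wild-type enrichment, in base 2, using inverse-variance-weighted replicate averages.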
row,Variant,polymerase ribozyme fitness (log ratio)
1,C49U C82U,-0.598
2,A50C C86G G127U,-2.12
3,C49A C56A U131C U133A,-0.929
4,A50C A90C U133G,-1.46
5,C49A G117A,-1.89
6,G51A C62A U116G C124A,-5.64
7,C49A G61U U81C G128U,-4.52
8,C49G U55G,-1.16
9,G48U C104U,-0.515
10,G51C C79A,-4.29
11,G51A C62U G113A,-3.5
12,C49U C70G,-3.77
13,G51A U112A,-1.47
14,A50U U55G C98U G127A,-5.19
15,C49G G69C U78C,-2.8
16,A50U A111G,-0.837
17,G48U U54G U129A,-1.88
18,A50U A111G U125A,-2.24
19,G48U C89U C124G G128A,-0.497
20,A50C U129A,-1.83
21,G48U G93C A121G,0.759

row,Variant,polymerase ribozyme fitness (log ratio)
1,A50U C115A,-0.803
2,C49A G122A,-0.428
3,A50C G93U U112G,-2.03
4,G48U C88G U96A,-3.43
5,G51C C80G G135U,-1.27
6,C49A C72A,0.275
7,C49A C72U,-1.37
8,A50G C79A U96C,-2.32
9,C49U C53U C89U,-0.369
10,A50U G63A C124G,-0.873
11,C49A G77C C88A,-1.31
12,C49U C72U C115U C123G,-2.4
13,C49G C56A C94U A111G,-1.5
14,G51A C56U G93U,-3.4
15,C49A A50C C56A C79A U132A,-3.18
16,G51U A66G,-4.49
17,A50C C62A C79U,-1.8
18,A50U C72U,-1.18
19,A50U C72G,-1.6
20,G48U U55G G69A,-2.77
21,C49U U106A U126A,-2.78

row,Variant,polymerase ribozyme fitness (log ratio)
1,C49A A74G,-0.173
2,C49G G58C,-3.36
3,C49A C53A C70U C86A U112G G128A,-5.42
4,C49G U55C C76U A95C C98U,-2.41
5,G51C C62U U112C,-2.27
6,C49G C115G G135U,-3.4
7,C49A C85A,-1.43
8,C49A G57U G127U,-1.6
9,G51A C86U,-3.18
10,G51A C86A,-2.78
11,C49A A75U C85G,-1.4
12,G51A C53A G61A C73U U133A,-2.11
13,C49U G120A,0.0229
14,G51A A68U C82U C124U,-7.31
15,C49A U81A A90U C123U,-1.24
16,C49U C76G G113A,-1.81
17,A50C G63U U81A,-1.63
18,C49G A74C G113A,-2.39
19,C49G C62U,-0.813
20,G48U C89A U130A,-2.33
21,C49G G57A U109A,-6.29

row,Variant,polymerase ribozyme fitness (log ratio)
1,C49A C82A G110A,-1.04
2,C49A U92C,-1.43
3,C49A U92G,-3.98
4,C49G G65U,-4.97
5,C49A G93U U125A U131G,-2.24
6,A50C U59C C86U,-0.825
7,G48U G61A C89A A119U,-2.48
8,C49A G63A,-0.725
9,A50C C62U C94U,-0.553
10,C49U G51A,-1.4
11,A50G C62U G69U C80A,-3.77
12,A50C U55C U106G,-2.2
13,G51C A111U,-6.8
14,C49G U59G C62G C72U,-4.88
15,C49G C123U,0.717
16,G51A A121U,-0.44
17,G48U C101U,-1.59
18,C49U C82U A121U G127A,0.337
19,G48U G57A C62U U78C C114A U133G,-3.01
20,A50U G60U U125G U129C,-3.19
21,A50U U112A C124U G128C,-4
